According to PMC10994351:

How the values were obtained:
[1] = target: wild-type myristoylated Arf1 (WT myrArf1) (human) (UniProt P84077)
[2] = target: [L8A/F13A]myrArf1 (human) (UniProt P84077)
[F13A]myrArf1 (human) = [F13A]myrArf1 (human) (UniProt P84077)
[L8K]myrArf1 (human) = [L8K]myrArf1 (human) (UniProt P84077)
[L8A]myrArf1 (human) = [L8A]myrArf1 (human) (UniProt P84077)

With “PH, Arf GAP, and ankyrin repeats (PZA construct) of ASAP1, His-tagged (domain or fragment)” the C50 (nM) of the GAP assay: ASAP1 PZA needed for 50% of maximum hydrolysis of [alpha-32P]GTP bound to myrArf1, LUVs with PIP2, 30°C, 3 min [1] was 0.79 nM, the C50 (nM) of the GAP assay: ASAP1 PZA needed for 50% of maximum hydrolysis of [alpha-32P]GTP bound to myrArf1, LUVs with PIP2, 30°C, 3 min [2] was 0.7 nM and the C50 (nM) of the GAP assay: ASAP1 PZA needed for 50% of maximum hydrolysis of [alpha-32P]GTP bound to myrArf1, LUVs with PIP2, 30°C, 3 min ([F13A]myrArf1 (human)) was 2100 nM. The C50 (nM) of the GAP assay: ASAP1 PZA needed for 50% of maximum hydrolysis of [alpha-32P]GTP bound to myrArf1, LUVs with PIP2, 30°C, 3 min ([L8K]myrArf1 (human)) was 0.84 nM and the C50 (nM) of the GAP assay: ASAP1 PZA needed for 50% of maximum hydrolysis of [alpha-32P]GTP bound to myrArf1, LUVs with PIP2, 30°C, 3 min ([L8A]myrArf1 (human)) was 0.84 nM.

“tandem PH domains, Arf GAP, and ankyrin repeats of ARAP1 (PPZA construct), His-tagged (domain or fragment)” was tested, and the C50 (nM) of the GAP assay: ARAP1 PPZA needed for 50% of maximum hydrolysis of [alpha-32P]GTP bound to myrArf1, LUVs with PIP3, 30°C, 3 min [1] was 0.14 nM and the C50 (nM) of the GAP assay: ARAP1 PPZA needed for 50% of maximum hydrolysis of [alpha-32P]GTP bound to myrArf1, LUVs with PIP3, 30°C, 3 min ([F13A]myrArf1 (human)) was 210 nM.

Substance “full-length AGAP1, His-tagged (from UniProt Q9UPQ3 1-857) (enzyme)” has a C50 (nM) of the GAP assay: full-length AGAP1 needed for 50% of maximum hydrolysis of [alpha-32P]GTP bound to myrArf1, LUVs with PIP2, 30°C, 3 min [1] of 1.6 nM and a C50 (nM) of the GAP assay: full-length AGAP1 needed for 50% of maximum hydrolysis of [alpha-32P]GTP bound to myrArf1, LUVs with PIP2, 30°C, 3 min ([F13A]myrArf1 (human)) of 340 nM.
